The target in this experiment is SKP2 (UniProt Q13309). The experiment is described as follows: co-immunoprecipitation from transfected 293T cells. As to conditions: reference: wild-type PDCD4; sites S67.

As for PDCD4 (from UniProt Q53EL6) PDCD4 S67A, the “binding against the reference” value is on record as “lost”.

Source of the values: article PMC6375223.
